Assay results from US20110014656A1 (ZymoGenetics, published 2011).
Where a chain is given by its changes, count along the chain named. Each block holds one binder with its values, some of them ahead of it.

Legend:
[1] = molecular target: T1, human IL-17RC, x1 splice variant, on transfected cells (human, UniProt Q8NAC3 21-791); test: competition, cold competitor vs 125I-IL-17A on BHK hIL-17RC cells
T1 construct: Expressed on BHK, 293F or NIH3T3 cells; also called hIL-17RC; hIL-17RC (x1)
T1 sequence: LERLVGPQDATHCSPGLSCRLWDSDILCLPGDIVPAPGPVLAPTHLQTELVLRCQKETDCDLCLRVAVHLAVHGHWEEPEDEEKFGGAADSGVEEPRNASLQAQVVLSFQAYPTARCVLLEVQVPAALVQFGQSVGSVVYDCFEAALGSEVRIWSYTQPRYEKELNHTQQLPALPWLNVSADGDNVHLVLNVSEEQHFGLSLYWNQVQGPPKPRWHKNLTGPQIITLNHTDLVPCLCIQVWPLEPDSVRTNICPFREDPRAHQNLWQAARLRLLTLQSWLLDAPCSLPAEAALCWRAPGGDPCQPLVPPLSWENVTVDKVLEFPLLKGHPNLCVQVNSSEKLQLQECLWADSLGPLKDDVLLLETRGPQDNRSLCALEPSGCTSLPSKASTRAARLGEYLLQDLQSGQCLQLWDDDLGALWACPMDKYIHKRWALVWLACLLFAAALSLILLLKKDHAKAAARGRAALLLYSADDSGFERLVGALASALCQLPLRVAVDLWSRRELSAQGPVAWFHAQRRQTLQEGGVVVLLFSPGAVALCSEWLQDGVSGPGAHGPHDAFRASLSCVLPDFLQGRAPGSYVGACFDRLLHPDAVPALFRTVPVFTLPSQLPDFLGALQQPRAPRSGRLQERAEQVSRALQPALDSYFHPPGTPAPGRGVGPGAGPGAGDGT
Description: Cold competitors were added in 100 fold molar excess. […] Wells were incubated on ice for 1-hour followed by two washes with PBS (Invitrogen 20012-027) and one wash with a high salt solution (1.5M NaCL, 50 mM HEPES pH 7.4). Wells were extracted with 500 ul of 0.8M NaOH for 30 min. at room temperature and counts per minute were measured in a gamma counter (Packard Cobra II A5005).

human IL-17A = molecular target: T2, human IL-17A (human, UniProt Q16552 24-155); test: cell-based competition binding, FACS
T2 construct: also called hIL-17A; hIL17A
T2 sequence: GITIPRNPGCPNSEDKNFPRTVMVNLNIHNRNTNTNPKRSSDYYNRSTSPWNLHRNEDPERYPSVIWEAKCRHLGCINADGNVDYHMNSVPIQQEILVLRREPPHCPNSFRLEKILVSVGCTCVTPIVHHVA
Description: (§1) The biotinylation of the ligand allows for FACS detection using a secondary Streptavidin conjugated fluorophore. A reduction in cell bound ligand over a titration of the soluble receptor is recorded as a reduction in the mean fluorescence of the cells. Biotinylated ligands are individually pre-mixed at 1 ug/ml with titrating amounts of soluble receptor in staining media (HBSS+1% BSA+0.1% NaAzide+10 mM HEPES) in 100 ul volumes and incubated at RT for 15 minutes. A BHK cell line stably transfected with full length IL17RCx4 is prepared for ligand staining by resuspension with Versene (Invitrogen cat. 15040-066), equilibrating to 2×10e5 cells/100 ul, pelleting, and resuspension in the ligand/soluble receptor pre-mix. Stained cells are incubated at 4° for 30 minutes, washed 1× in staining media, and stained with Streptavidin-PE (BD Pharmingen cat. 554061) at a 1:100 ratio. Cells are incubated at 4° in the dark for 30 minutes, washed 2× in staining media, and re-suspended in a 1:1 ratio of staining media and Cytofix (BD Bioscience 554655). The BD LSRII Flow Cytometer or similar instrument is used for data collection and analysis. FIG. 5 depicts a standard graph. The graph was generated using the Prizm software program. The Y values represent the MFI normalized to maximum and minimum (100% and 0%) based on ligand only and no ligand/no soluble receptor control wells, and thus the percent binding of the ligand to the cells. The software calculates the IC50 for each curve.

human IL-17F = molecular target: T3, human IL-17F (human, UniProt Q96PD4 31-163); test: cell-based competition binding, FACS
T3 construct: also called hIL-17F; hIL17F
T3 sequence: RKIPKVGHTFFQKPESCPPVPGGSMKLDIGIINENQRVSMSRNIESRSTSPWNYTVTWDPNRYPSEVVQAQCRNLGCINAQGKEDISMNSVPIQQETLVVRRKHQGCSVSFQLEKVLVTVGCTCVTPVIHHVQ
Description: as §1

[2] = molecular target: T4, human IL-17 receptor (IL-17RA) on transfected cells (human, UniProt Q96F46 33-320); test: FACS, biotinylated cytokine on stably transfected BHK cells
T4 construct: it may not be the full-length receptor; also called hIL-17RA
T4 sequence: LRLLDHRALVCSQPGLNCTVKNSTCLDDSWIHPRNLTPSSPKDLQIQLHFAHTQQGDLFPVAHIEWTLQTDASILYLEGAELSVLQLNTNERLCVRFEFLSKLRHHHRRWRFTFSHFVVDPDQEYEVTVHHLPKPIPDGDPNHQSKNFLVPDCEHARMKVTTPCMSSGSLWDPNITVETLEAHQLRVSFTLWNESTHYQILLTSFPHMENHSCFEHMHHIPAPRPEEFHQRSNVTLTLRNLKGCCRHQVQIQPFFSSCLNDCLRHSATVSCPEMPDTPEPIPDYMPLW

[3] = molecular target: T1, human IL-17RC, x1 splice variant, on …; test: FACS, biotinylated cytokine on transiently transfected 293F cells
Excerpt: (§2) However, the other splice variants tested either included or excluded hIL-17RC exon 12. These variants were designated hIL-17RCx1 (identical in exon composition to mouse x1 above), hIL-17RCx4 (identical in exon composition to mouse x4 above), hIL-17RCx2, and hIL-17RCx7.

[4] = molecular target: T5, human IL-17RC, x4 splice variant, on transfected cells (human, UniProt Q8NAC3 21-791); test: as above
T5 construct: Expressed on 293F, BHK or NIH3T3 cells; also called hIL-17RCx4; hIL-17RCX4
T5 sequence: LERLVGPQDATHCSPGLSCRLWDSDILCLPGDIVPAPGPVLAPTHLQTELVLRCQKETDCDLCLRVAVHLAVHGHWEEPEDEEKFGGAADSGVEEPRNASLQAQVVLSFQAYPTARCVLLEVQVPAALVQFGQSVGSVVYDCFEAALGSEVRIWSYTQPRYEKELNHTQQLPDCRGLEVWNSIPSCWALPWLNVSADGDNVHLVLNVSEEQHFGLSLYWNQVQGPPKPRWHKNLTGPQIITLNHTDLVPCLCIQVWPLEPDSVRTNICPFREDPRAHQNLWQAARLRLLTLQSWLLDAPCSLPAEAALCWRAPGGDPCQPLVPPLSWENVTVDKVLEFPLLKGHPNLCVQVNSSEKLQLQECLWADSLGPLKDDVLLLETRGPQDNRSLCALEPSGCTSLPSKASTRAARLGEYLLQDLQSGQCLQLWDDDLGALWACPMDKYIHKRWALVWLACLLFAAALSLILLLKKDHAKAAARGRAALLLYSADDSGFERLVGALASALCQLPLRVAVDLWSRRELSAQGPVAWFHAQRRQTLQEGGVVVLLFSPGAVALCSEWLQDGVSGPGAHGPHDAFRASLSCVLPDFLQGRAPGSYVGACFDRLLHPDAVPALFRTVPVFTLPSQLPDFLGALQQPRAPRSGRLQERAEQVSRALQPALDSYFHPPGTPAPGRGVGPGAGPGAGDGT
Excerpt: as §2

B1: human IL-17C (ligand, UniProt Q9P0M4 19-197, looked up)
chain: HHDPSLRGHPHSHGTPHCYSAEELPLGQAPPHLLARGAKWGQALPVALVSSLEAASHRGRHERPSATTQCPVLRPEEVLEADTHQRSISPWRYRVDTDEDRYPQKLAFAECLCRGCIDARTGRETAALNSVRLLQSLLVLRRRPCSRDGSGLPTPGAFAFHTEFIHVPVGCTCVLPRSV
notes: also called hIL-17C
binding result [1]: no binding (tested: 100 fold molar excess)

B2: Variant 1390 (Fc fusion)
chain: LERLVGPQDATHCSPGLSCRLWDSDILCLPGDIVPAPGPVLAPTHLQTELVLRCQKETDCDLCLRVAVHLAVHGHWEEPEDEEKFGGAADSGVEEPRNASLQAQVVLSFQAYPTARCVLLEVQVPAALVQFGQSVGSVVYDCFEAALGSEVRIWSYTQPRYEKELNHTQQLPALPWLNVSADGDNVHLVLNVSEEQHFGLSLYWNQVQGPPKPRWHKNLTGPQIITLNHTDLVPCLCIQVWPLEPDSVRTNICPFREDPRAHQNLWQAARLRLLTLQSWLLDAPCSLPAEAALCWRAPGGDPCQPLVPPLSWENVTVDKVLEFPLLKGHPNLCVQVNSSEKLQLQECLWADSLGPLKDDVLLLETRGPQDNRSLCALEPSGCTSLPSKASTRAARLGEYLLQDLQSGQCLQLWDDDLGALWACPMDKYIHKEPKSSDKTHTCPPCPAPEAEGAPSVFLFPPKPKDTLMISRTPEVTCVVVDVSHEDPEVKFNWYVDGVEVHNAKTKPREEQYNSTYRVVSVLTVLHQDWLNGKEYKCKVSNKALPSSIEKTISKAKGQPREPQVYTLPPSRDELTKNQVSLTCLVKGFYPSDIAVEWESNGQPENNYKTTPPVLDSDGSFFLYSKLTVDKSRWQQGNVFSCSVMHEALHNHYTQKSLSLSPGK
notes: The entry may include the signal peptide; also called IL17RC 1390
IC50 (human IL-17A): 12 µg/mL | IC50 (human IL-17F): 9 µg/mL

B3: Variant 1459 (Fc fusion)
chain: B2 chain with L1A
notes: The entry may include the signal peptide; also called IL17RC 1459
IC50 (human IL-17A): 126 µg/mL | IC50 (human IL-17F): 103 µg/mL

Continued, in another order:

binding result [2]: no binding
B4: human IL-17E (ligand, UniProt Q9H293 33-177, looked up)
chain: YSHWPSCCPSKGQDTSEELLRWSTVPVPPLEPARPNRHPESCRASEDGPLNSRAISPWRYELDRDLNRLPQDLYHARCLCPHCVSLQTGSHMDPRGNSELLYHNQTVFYRRPCHGEKGTHKGYCLERRLYRVSLACVCVRPRVMG
notes: also called hIL-17E
binding result [1]: no binding (tested: 100 fold molar excess)

binding result [2]: no binding
B5: human IL-17D (ligand, UniProt Q8TAD2 18-202, looked up)
chain: APRAGRRPARPRGCADRPEELLEQLYGRLAAGVLSAFHHTLQLGPREQARNASCPAGGRPADRRFRPPTNLRSVSPWAYRISYDPARYPRYLPEAYCLCRGCLTGLFGEEDVRFRSAPVYMPTVVLRRTPACAGGRSVYTEAYVTIPVGCTCVPEPEKDADSINSSIDKQGAKLLLGPNDAPAGP
notes: also called hIL-17D
binding result [1]: no binding (tested: 100 fold molar excess)

binding result [3]: no binding | binding result [4]: binds
B6: murine IL-17F (ligand)
chain: RKNPKAGVPALQKAGNCPPLEDNTVRVDIRIFNQNQGISVPREFQNRSSSPWDYNITRDPHRFPSEIAEAQCRHSGCINAQGQEDSTMNSVAIQQEILVLRREPQGCSNSFRLEKMLLKVGCTCVKPIVHQAA
notes: also called mIL-17F; mIL17F
